Measured values: doi:10.1101/2021.03.24.436638

Target: calnexin (simian (endogenous in COS7))
Assay: co-IP

Row | Binder | amount coimmunoprecipitated with CNX, percent of wild-type GlyT2
1 | GlyT2 A277T mutant (rat numbering; rat version of human A275T) (natural protein) MDCSAPKEMNKPPTNILEATVPGHRDSPRAPRTSPEQDLPAAAPAAAVQPPRVPRSASTGAQTFQSADARACEAQRPGVGFCKLSSPQAQATSAALRDLSEGHSAQANPPSGAAGAGNALHCKIPALRGPEEDENVSVGKGTLEHNNTPAVGWVNMSQSTVVLGTDGIASVLPGSVATTTIPEDEQGDENKARGNWSSKLDFILSMVGYAVGLGNVWRFPYLAFQNGGGAFLIPYLMMLALAGLPIFFLEVSLGQFASQGPVSVWKAIPALQGCGITMLIISVLIAIYYNVIICYTLFYLFASFVSVLPWGSCNNPWNTPECKDKTKLLLDSCVIGDHPKIQIKNSTFCMTAYPNLTMVNFTSQANKTFVSGSEEYFKYFVLKISAGIEYPGEIRWPLAFCLFLAWVIVYASLAKGIKTSGKVVYFTATFPYVVLVILLIRGVTLPGAGAGIWYFITPKWEKLTDATVWKDAATQIFFSLSAAWGGLITLSSYNKFHNNCYRDTLIVTCTNSATSIFAGFVIFSVIGFMANERKVNIENVADQGPGIAFVVYPEALTRLPLSPFWAIIFFLMLLTLGLDTMFATIETIVTSISDEFPKYLRTHKPVFTLGCCICFFIMGFPMITQGGIYMFQLVDTYAASYALVIIAIFELVGISYVYGLQRFCEDIEMMIGFQPNIFWKVCWAFVTPTILTFILCFSFYQWEPMTYGSYRYPNWSMVLGWLMLACSVIWIPIMFVIKMYLAPGRFIERLKLVCSPQPDWGPFLAQHRGERYKNMIDPLGTSSLGLKLPVKDLELGTQC | 289%
2 | GlyT2 Y707C mutant (rat numbering; rat version of human Y705C) (natural protein) MDCSAPKEMNKPPTNILEATVPGHRDSPRAPRTSPEQDLPAAAPAAAVQPPRVPRSASTGAQTFQSADARACEAQRPGVGFCKLSSPQAQATSAALRDLSEGHSAQANPPSGAAGAGNALHCKIPALRGPEEDENVSVGKGTLEHNNTPAVGWVNMSQSTVVLGTDGIASVLPGSVATTTIPEDEQGDENKARGNWSSKLDFILSMVGYAVGLGNVWRFPYLAFQNGGGAFLIPYLMMLALAGLPIFFLEVSLGQFASQGPVSVWKAIPALQGCGIAMLIISVLIAIYYNVIICYTLFYLFASFVSVLPWGSCNNPWNTPECKDKTKLLLDSCVIGDHPKIQIKNSTFCMTAYPNLTMVNFTSQANKTFVSGSEEYFKYFVLKISAGIEYPGEIRWPLAFCLFLAWVIVYASLAKGIKTSGKVVYFTATFPYVVLVILLIRGVTLPGAGAGIWYFITPKWEKLTDATVWKDAATQIFFSLSAAWGGLITLSSYNKFHNNCYRDTLIVTCTNSATSIFAGFVIFSVIGFMANERKVNIENVADQGPGIAFVVYPEALTRLPLSPFWAIIFFLMLLTLGLDTMFATIETIVTSISDEFPKYLRTHKPVFTLGCCICFFIMGFPMITQGGIYMFQLVDTYAASYALVIIAIFELVGISYVYGLQRFCEDIEMMIGFQPNIFWKVCWAFVTPTILTFILCFSFYQWEPMTCGSYRYPNWSMVLGWLMLACSVIWIPIMFVIKMYLAPGRFIERLKLVCSPQPDWGPFLAQHRGERYKNMIDPLGTSSLGLKLPVKDLELGTQC | 188%
